Source: patent US20090298167A1 (Pfizer, published 2009)

What was measured:
[1] = molecular target: T1, human IL-21R expressed on cells (human, UniProt Q9HBE5 20-538); assay: cell ELISA on transfected CHO cells, 13 nM IgG
T1 construct: Transfected BaF3, TF1 and CHO cells; also native on primary human B and CD4+ T cells; also called hIL-21R; human IL-21R-BaF3 cells

[2] = molecular target: T2, rat IL-21R expressed on cells (rat); assay: cell ELISA on transfected CHO cells, 13 nM IgG
T2 construct: whole, on cells; Transiently transfected CHO-PA-Dukx cells

[3] = molecular target: T3, cynomolgus monkey IL-21R expressed on CHO cells (cynomolgus monkey); assay: cell ELISA on transfected CHO cells, 13 nM IgG
T3 construct: whole, on cells

[4] = molecular target: T4, human gamma common chain expressed on CHO cells (human, UniProt P31785 23-369); assay: cell ELISA on transfected CHO cells, 13 nM IgG
T4 construct: whole, on cells; Control protein; also called human IL-2R-γ common subunit; human gamma (γ) common chain
T4 sequence (looked up): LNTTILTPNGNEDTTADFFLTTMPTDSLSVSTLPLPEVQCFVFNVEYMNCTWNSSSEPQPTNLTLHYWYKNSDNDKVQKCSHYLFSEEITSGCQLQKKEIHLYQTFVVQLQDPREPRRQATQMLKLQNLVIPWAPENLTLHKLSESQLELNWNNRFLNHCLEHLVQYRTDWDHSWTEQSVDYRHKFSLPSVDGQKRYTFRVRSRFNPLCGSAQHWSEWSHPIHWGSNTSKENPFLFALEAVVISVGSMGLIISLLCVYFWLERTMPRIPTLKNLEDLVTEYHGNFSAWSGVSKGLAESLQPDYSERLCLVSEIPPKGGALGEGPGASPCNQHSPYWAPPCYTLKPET

[5] = molecular target: T2, rat IL-21R expressed on cells; assay: cell ELISA: CHO cells transiently expressing the receptor, antibody in conditioned medium, HRP anti-human IgG, A450
Description: A subset of binding proteins was tested for binding to rat, cynomolgus monkey, human IL-21R, or human IL-2R-γ common subunit expressed transiently on the surfaces of CHO-PA-Dukx cells. Cells were transfected 48 hr prior to the assay. On the day of the assay, cells were washed gently 5× in PBS containing 0.9 mM CaCl₂ and 0.45 mM MgCl₂ (PBS/CaMg) on an automated plate washer (Titertek, Huntsville, Ala.), and blocked for 1 hr at RT in PBS/CaMg/5% nonfat dry milk. Conditioned media from transiently expressed anti-IL-21R IgGs were serially diluted in blocking buffer and added to the cells in the blocked plates for 1 hr at RT. Cells were washed 5× with PBS/CaMg and then incubated with horseradish peroxidase-conjugated anti-human IgG for 1 hr at RT. Cells were then washed 10× in PBS/CaMg and all of the wash buffer was removed. Cells were incubated with 100 μl TMB until the color reaction reached saturation, stopped with 100 μl of 0.18 M H₂SO₄, and read at A450 on a Perkin Elmer ENVISION™ plate reader.

[6] = molecular target: T1, human IL-21R expressed on cells; assay: cell-based or functional assay
[7] = molecular target: murine IL-21R expressed on cells (murine, UniProt Q9JHX3 20-529); assay: cell-based or functional assay
Sequence of murine IL-21R expressed on cells (Q9JHX3 20-529 limits assumed): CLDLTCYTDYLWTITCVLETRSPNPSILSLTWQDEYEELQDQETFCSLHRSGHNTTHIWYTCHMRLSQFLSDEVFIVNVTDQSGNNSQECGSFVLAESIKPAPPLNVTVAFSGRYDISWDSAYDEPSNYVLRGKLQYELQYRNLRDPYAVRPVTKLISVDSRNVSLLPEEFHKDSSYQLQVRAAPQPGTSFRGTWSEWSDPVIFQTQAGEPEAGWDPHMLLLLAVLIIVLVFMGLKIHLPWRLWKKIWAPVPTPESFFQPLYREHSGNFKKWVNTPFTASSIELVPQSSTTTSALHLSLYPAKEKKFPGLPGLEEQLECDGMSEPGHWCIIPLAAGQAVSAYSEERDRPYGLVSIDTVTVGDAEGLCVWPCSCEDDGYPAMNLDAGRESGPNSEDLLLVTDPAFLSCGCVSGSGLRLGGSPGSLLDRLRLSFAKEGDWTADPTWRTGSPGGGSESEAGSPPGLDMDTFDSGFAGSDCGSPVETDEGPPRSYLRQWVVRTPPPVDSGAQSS

T1 sequence (Q9HBE5 20-538 limits assumed): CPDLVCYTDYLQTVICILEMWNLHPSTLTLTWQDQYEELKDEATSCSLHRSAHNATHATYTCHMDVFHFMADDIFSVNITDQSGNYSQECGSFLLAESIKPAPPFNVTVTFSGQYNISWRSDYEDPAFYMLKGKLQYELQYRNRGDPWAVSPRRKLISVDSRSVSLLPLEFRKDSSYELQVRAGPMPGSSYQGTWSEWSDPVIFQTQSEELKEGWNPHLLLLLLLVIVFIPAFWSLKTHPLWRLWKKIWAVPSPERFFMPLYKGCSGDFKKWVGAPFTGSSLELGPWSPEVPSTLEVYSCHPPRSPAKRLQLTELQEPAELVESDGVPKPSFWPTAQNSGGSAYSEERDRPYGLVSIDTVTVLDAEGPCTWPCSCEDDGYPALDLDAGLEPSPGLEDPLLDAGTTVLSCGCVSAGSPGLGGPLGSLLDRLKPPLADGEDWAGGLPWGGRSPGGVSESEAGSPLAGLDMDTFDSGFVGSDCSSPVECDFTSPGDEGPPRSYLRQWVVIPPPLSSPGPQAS

A450 at 13 nM Ab in cell ELISA [1]: 1.35 A450
A450 at 13 nM Ab in cell ELISA [2]: 1.11 A450
A450 at 13 nM Ab in cell ELISA [3]: 1.3 A450
A450 at 13 nM Ab in cell ELISA [4]: 0.108 A450
EC50 (read off the curve) [5]: ~800 pM
Human IL-21R-BaF3 Proliferation IC50 [6]: 770 pM
Human IL-21R-TF1 Proliferation IC50 [6]: 3840 pM
Murine IL-21R-BaF3 Proliferation IC50 [7]: 70 pM
B1: AbG (antibody, human IgG1, V domains shown)
VH: QVQLQESGPGLVKPSETLSLTCAVSGYSISSGYYWGWIRQPPGKGLEWIGSISHTGNTYYNPPLKSRVTISVDTSKNQFSLKLSSVTAADTAVYYCARGGGISRPEYWGQGTLVTVSS
VL: SSELTQDPAVSVALGQTVRITCQGDSLRTYYASWYQQKPGQAPVLVIYGKHKRPSGIPDRFSGSSSGNTASLTITGAQAEDEADYYCVTRSVKGNPHVLFGGGTQLTVL
notes: Full-length human IgG1 / human lambda, transient, conditioned medium; Framework limits derived; also called VHP/VL18
